In patent publication US20230076637A1 (AJOU UNIVERSITY INDUSTRY ACADEMIC COOPERATION FOUNDATION, published 2023):
Residue numbers refer to the chain shown, from its start.

B1: H9#1 TCR-like antibody (antibody, mouse IgG2a, kappa, V domains shown)
VH: EVQLVQSGAEVKKPGSSVKVSCKASGGTFSSYAISWVRQAPGQGLEWMGGIIPIFGTANYAQKFQGRVTITADESTSTAYMELSSLRSEDTAVYYCARGDLYYYDSSGYPLWYMDYWGQGTLVTVSS
VL: ETTLTQSPGTLSLSPGERATLSCRASQSVSSSYLAWYQQKPGQAPRLVIYGASSRATGIPDRFSGSGSGTDFTLTISRLEPEDFAVYYCQDYSTYPAFTFGQGTKLEIRR
B2: H9 TCR-like antibody (antibody, mouse IgG2a, kappa, V domains shown)
VH: B1 VH with L111R, W112Y, M114F
VL: B1 VL with D91H, Y95S, A97G
B3: C1-17 TCR-like antibody (antibody, mouse IgG2a, kappa, V domains shown)
VH: B1 VH with G50S, T57V, N59E, Q62H
VL: B1 VL with S54T, A56P
B4: inCT99†CMVp480-503 fusion antibody (antibody)
heavy: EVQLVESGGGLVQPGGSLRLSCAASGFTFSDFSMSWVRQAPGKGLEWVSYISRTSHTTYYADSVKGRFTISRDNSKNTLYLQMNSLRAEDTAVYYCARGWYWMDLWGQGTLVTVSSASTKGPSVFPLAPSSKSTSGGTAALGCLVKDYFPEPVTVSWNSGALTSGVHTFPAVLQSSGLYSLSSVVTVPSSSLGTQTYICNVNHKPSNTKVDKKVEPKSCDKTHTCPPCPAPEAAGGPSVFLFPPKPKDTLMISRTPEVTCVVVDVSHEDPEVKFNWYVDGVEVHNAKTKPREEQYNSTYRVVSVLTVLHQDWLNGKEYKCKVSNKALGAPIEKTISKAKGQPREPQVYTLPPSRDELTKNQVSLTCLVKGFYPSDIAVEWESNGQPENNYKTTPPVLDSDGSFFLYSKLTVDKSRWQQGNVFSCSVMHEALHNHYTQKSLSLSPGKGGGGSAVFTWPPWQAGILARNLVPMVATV
light: SDGVRQCRGDCFDGPLMGSSSNDIQMTQSPSSLSASVGDRVTITCKSSQSLLNSRDGKNYLAWYQQKPGKAPKLLIYDASNLETGVPSRFSGSGSGTDFTFTISSLQPEDIATYFCQQYWYWMYTFGGGTKVEIKRTVAAPSVFIFPPSDEQLKSGTASVVCLLNNFYPREAKVQWKVDNALQSGNSQESVTEQDSKDSTYSLSSTLTLSKADYEKHKVYACEVTHQGLSSPVTKSFNRGEC
B5: inCT99†CMVp480-510 fusion antibody (antibody)
heavy: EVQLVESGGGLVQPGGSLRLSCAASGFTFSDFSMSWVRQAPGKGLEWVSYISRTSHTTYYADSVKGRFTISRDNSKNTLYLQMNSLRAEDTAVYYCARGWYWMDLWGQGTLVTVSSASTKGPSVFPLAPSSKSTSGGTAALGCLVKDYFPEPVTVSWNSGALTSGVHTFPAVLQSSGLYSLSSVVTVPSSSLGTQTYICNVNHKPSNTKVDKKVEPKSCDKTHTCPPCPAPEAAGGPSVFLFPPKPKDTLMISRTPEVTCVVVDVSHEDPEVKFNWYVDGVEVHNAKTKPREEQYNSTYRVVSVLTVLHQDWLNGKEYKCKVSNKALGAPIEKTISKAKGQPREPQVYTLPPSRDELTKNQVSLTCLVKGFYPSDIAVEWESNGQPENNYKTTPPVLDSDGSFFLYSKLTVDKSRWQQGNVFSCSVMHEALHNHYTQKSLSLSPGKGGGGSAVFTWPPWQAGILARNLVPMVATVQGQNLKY
light: B4 light

What was measured:
[1] = biological target: T1, CMVp495-503/HLA-A*02:01 complex (cytomegalovirus (CMV); human); assay: flow cytometry, cancer cells pulsed with CMVp495-503 peptide, anti-mouse Fc secondary
T1 construct: whole, on cells; also called CMV peptide-MHC-I complex
Protocol: A negative control group not treated with peptide was added with DMSO. After 3 hours, centrifugation was performed at 1300 rpm for 3 minutes to remove the supernatant containing the peptide not bound to the cells, and the cells were washed with a FACS buffer and centrifuged at 1300 rpm for 3 minutes to remove the supernatant. […] After each sample was washed with 1 ml of a FACS buffer, a F(ab′)₂ antibody that specifically recognizes Alexa647 (red fluorescence)-conjugated mouse Fc was diluted 1:1200 in 100 μl of a FACS buffer, followed by reaction at 4° C. for 30 minutes. The cells were washed with 1 ml of a FACS buffer and then analyzed through flow cytometry.

[2] = biological target: T2, HLA-A*02:01 expressed on the surface of cancer cells (human); assay: summary table, column MHC-1 display at 4 C
T2 construct: whole, on cells; also called cell-surface HLA-A*02:01; HLA-A2

[3] = biological target: T2, HLA-A*02:01 expressed on the surface of …; assay: flow cytometry, MDA-MB-231 cells (4 °C scheme of FIG. 9a), detection with C1-17

Binder	binding result [1]	further results
B1	binds	–
B2	binds	–
B3	binds	–
B4	–	binding result [2]: binds
B5	–	binding result [3]: no binding
